Tests used:
[1] = molecular target: 38C13 IgM surface receptor (idiotype receptor) of 38C13 B lymphoma cells; experiment: antibody microarray probed with 38C13 cell extract, goat anti-mouse IgM-HRP detection
[2] = molecular target: 38C13 IgM surface receptor (idiotype receptor) of 38C13 B lymphoma cells; experiment: cell capture microarray, previously frozen 38C13 cells, microscopy
[3] = molecular target: purified IgM antibody (38C13); experiment: antibody microarray on FAST slide, goat anti-mouse IgM-HRP detection, chemiluminescence
[4] = molecular target: 38C13 IgM surface receptor (idiotype receptor) of 38C13 B lymphoma cells; experiment: cell capture microarray, 38C13 cells growing in culture, no washing, microscopy

- extract dilution at which 38C13 IgM was detected (fold dilution (1:x)) [1]: 2000
- lowest printed S1C5 concentration at which 38C13 IgM of the extract was detected [1]: 50 µg/mL
- lowest printed antibody concentration at which bound cells were detected [2]: 6.25 µg/mL
- IgM concentration at which a strong signal was seen [3]: 0.1 µg/mL
- lowest spotted S1C5 concentration giving a strong signal [3]: 25 µg/mL
- lowest printed antibody concentration at which bound cells were detected [4]: 3.12 µg/mL
Substance: S1C5 anti-idiotype monoclonal antibody (anti-IgM antibody)

Source: US20040209282A1
